Patent US20180072816A1 (ADALTA, published 2018)
Residue numbers refer to the chain shown, from its start. “And” between values parts separate entries of the source, which are not always exact repeats. Identical values can stand only once.

Key:
human CXCR4 [1] = target: T1, human CXCR4 (human, UniProt P61073 1-352); assay: cell-based or functional assay
human CXCR4 [2] = target: T1, human CXCR4; assay: not told
human CXCR4 [3] = target: T1, human CXCR4; assay: cell-based or functional assay; remark: listed apart in the source
human CXCR4 [4] = target: T1, human CXCR4; assay: SPR (Biacore), CXCR4 expressed on lipoparticles
human CXCR4 [5] = target: T1, human CXCR4; assay: not told (affinity for CXCR4); parent i-body before affinity maturation
human CXCR4 [6] = target: T1, human CXCR4; assay: SPR (Biacore), immobilised CXCR4 lipoparticles
CCR5 (on lipoparticles) = target: T2, CCR5 (on lipoparticles) (UniProt P51681 1-352, limits assumed); assay: ELISA, single point, periplasmic fraction on CCR5 positive lipoparticles, 450 nm absorbance
T2 construct: whole, on cells; Whole receptor in lipoparticles; also called CCR5 positive lipoparticles; GPCR CCR5
T2 sequence (P51681 whole entry): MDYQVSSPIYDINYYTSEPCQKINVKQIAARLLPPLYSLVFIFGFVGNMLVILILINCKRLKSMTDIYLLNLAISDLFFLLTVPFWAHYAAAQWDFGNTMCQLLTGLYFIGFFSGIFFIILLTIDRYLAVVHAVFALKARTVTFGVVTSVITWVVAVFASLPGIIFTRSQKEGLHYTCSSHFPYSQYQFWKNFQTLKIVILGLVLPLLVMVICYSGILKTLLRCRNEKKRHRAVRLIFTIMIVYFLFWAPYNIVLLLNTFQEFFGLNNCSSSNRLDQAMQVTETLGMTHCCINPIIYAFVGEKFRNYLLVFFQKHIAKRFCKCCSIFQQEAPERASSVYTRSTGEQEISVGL

human CXCR4 [7] = target: T1, human CXCR4; assay: SPR (Biacore), immobilised CXCR4 lipoparticles; remark: listed apart in the source
human CXCR4 [8] = target: T1, human CXCR4; assay: SPR
human CXCR4 [9] = target: T1, human CXCR4; assay: cell-based or functional assay; remark: listed apart in the source
human CXCR4 [10] = target: T1, human CXCR4; assay: off-rate, CXCR4 expressed on lipoparticles
human CXCR4 [11] = target: T1, human CXCR4; assay: SPR (Biacore), biotinylated CXCR4 lipoparticles captured on streptavidin (bt. CXCR4), i-body injected
human serum albumin [12] = target: T3, human serum albumin (human, UniProt P02768 25-609); assay: SPR (Biacore), binding to HSA by the SA21 peptide
T3 construct: also called HSA; HAS

human CXCR4 [13] = target: T1, human CXCR4; assay: SPR (Biacore), biotinylated CXCR4 lipoparticles (bt.CXCR4), three successive injections in one cycle
human CXCR4 [14] = target: T1, human CXCR4; assay: SPR (Biacore)
human serum albumin [15] = target: T3, human serum albumin; assay: SPR
human CXCR4 [16] = target: T1, human CXCR4; assay: flow cytometry on Ramos cells, anti-His-PE; i-body alone or with an excess of SDF-1, MAb 12G5 or AMD3100 [top panel]
human CXCR4 [17] = target: T1, human CXCR4; assay: flow cytometry on Ramos cells, anti-His-PE; i-body alone or with an excess of SDF-1, MAb 12G5 or AMD3100 [middle panel]
human CXCR4 [18] = target: T1, human CXCR4; assay: SPR (Biacore), biotinylated CXCR4 lipoparticles captured on streptavidin (bt. CXCR4), i-body injected; remark: listed apart in the source
human CXCR4 [19] = target: T1, human CXCR4; assay: as above; remark: listed apart in the source
human CXCR4 [20] = target: T1, human CXCR4; assay: phage display selection on hCXCR4 lipoparticles or CXCR4 positive cells

T1 sequence (P61073 whole entry): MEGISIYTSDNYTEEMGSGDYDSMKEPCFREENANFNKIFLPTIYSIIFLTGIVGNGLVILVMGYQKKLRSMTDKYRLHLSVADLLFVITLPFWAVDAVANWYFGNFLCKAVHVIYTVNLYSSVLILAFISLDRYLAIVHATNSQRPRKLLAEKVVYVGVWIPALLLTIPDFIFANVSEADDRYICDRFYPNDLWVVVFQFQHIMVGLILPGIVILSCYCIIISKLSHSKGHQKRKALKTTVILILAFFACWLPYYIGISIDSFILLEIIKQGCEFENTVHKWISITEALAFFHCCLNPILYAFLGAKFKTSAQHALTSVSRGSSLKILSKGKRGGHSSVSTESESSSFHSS

B1: 21H5 control i-body (designed binder)
chain: LQVDIVPSQGEISVGESKFFLCQVAGDAKDKDISWFSPNGEKLTPNQQRISVVWNDDSSSTLTIYNANIDDAGIYKCVVTGSDAMSNYSYPISESEATVNVKIFQ
notes: Control i-body used as isotype control; also called negative control i-body; isotype control i-body
Human CXCR4 [1]
  cAMP inhibition IC50: > 10000 nM
Human CXCR4 [2]
  binding result: no binding
Human CXCR4 [3]
  Calcium Inhibition EC50: > 10000 nM

B2: AM3-920 (designed binder)
chain: LQVDIVPSQGEISVGESKFFLCQVAGSGSGIRISWFSPNGEKLTPNQQRISVVWNDDSSSTLTIYNANIDDAGIYKCVVWRTGGYRHRYLVLGEATVNVKIFQ
Human CXCR4 [4]
  Kd: 7.18 nM and 5.87 nM
  kon: 1.12e+06 M⁻¹ s⁻¹ and 1.26e+06 M⁻¹ s⁻¹

B3: ADCX-99 (designed binder)
chain: B2 chain with G30D, W80Y, Y89A
notes: i-body (human NCAM1 domain 1 scaffold); also called wild-type i-body ADCX-99
Human CXCR4 [5]
  Kd: > 700 nM
Human CXCR4 [6]
  Kd: 700 nM
CCR5 (on lipoparticles)
  binding result: no binding
Human CXCR4 [7]
  Kd: ~600 nM and 623 nM
Human CXCR4 [8]
  Kd: 643 nM

B4: AM3-466 (designed binder)
chain: B2 chain with G30H, I31Q, G84A, Y89A
Human CXCR4 [9]
  IC50 (nM) in β-Arrestin BRET assay (Antagonist mode in the presence of 100 nM SDF-1): 6320 nM
Human CXCR4 [4]
  Kd: 13.8 nM and 15.7 nM
  kon: 465000 M⁻¹ s⁻¹ and 426000 M⁻¹ s⁻¹

B5: AM3-523 (designed binder)
chain: B2 chain with G30H, I31M, T82V, Y89A
Human CXCR4 [1]
  cAMP inhibition IC50: 225 nM
Human CXCR4 [9]
  IC50 (nM) in β-Arrestin BRET assay (Antagonist mode in the presence of 100 nM SDF-1): 12700 nM
Human CXCR4 [4]
  Kd: 8.53 nM and 9.47 nM
  kon: 1e+06 M⁻¹ s⁻¹ and 965000 M⁻¹ s⁻¹

B6: AM4-613 (designed binder)
chain: B2 chain with G28K, G30D, I31V
Human CXCR4 [9]
  IC50 (nM) in β-Arrestin BRET assay (Antagonist mode in the presence of 100 nM SDF-1): 1830 nM
Human CXCR4 [4]
  Kd: 7.83 nM
  kon: 1.33e+06 M⁻¹ s⁻¹

B7: AM4-661 (designed binder)
chain: B2 chain with G28K, G30D, I31F, W80Y
Human CXCR4 [9]
  IC50 (nM) in β-Arrestin BRET assay (Antagonist mode in the presence of 100 nM SDF-1): 1540 nM
Human CXCR4 [4]
  Kd: 9.53 nM and 9.66 nM
  kon: 966000 M⁻¹ s⁻¹ and 983000 M⁻¹ s⁻¹

B8: AM4-746 (designed binder)
chain: B2 chain with G28K, G30N, W80Y, V91K
Human CXCR4 [1]
  cAMP inhibition IC50: 115 nM
Human CXCR4 [9]
  IC50 (nM) in β-Arrestin BRET assay (Antagonist mode in the presence of 100 nM SDF-1): 741 nM
Human CXCR4 [4]
  Kd: 5.36 nM
  kon: 2.5e+06 M⁻¹ s⁻¹

B9: AM4-1121 (designed binder)
chain: B2 chain with G28K, W80Y, V91R
Human CXCR4 [1]
  cAMP inhibition IC50: 125 nM
Human CXCR4 [9]
  IC50 (nM) in β-Arrestin BRET assay (Antagonist mode in the presence of 100 nM SDF-1): 796 nM
Human CXCR4 [4]
  Kd: 7.21 nM and 6.7 nM
  kon: 1.29e+06 M⁻¹ s⁻¹ and 1.42e+06 M⁻¹ s⁻¹
Human CXCR4 [10]
  koff: 0.0115 s⁻¹

B10: AM5-245 (designed binder)
chain: B2 chain with V24A, G30H, Y89A
Human CXCR4 [4]
  Kd: 14.9 nM and 15.9 nM
  kon: 813000 M⁻¹ s⁻¹ and 771000 M⁻¹ s⁻¹

B11: ADCX-306 (designed binder)
chain: LQVDIVPSQGEISVGESKFFLCQVAGFQEWVNWFSPNGEKLTPNQQRISVVWNDDSSSTLTIYNANIDDAGIYKCVVTMPHTLNNLDVRTEATVNVKIFQ
notes: i-body (human NCAM1 domain 1 scaffold)
Human CXCR4 [11]
  Kd: 22500 nM
Human CXCR4 [6]
  Kd: 22000 nM
Human CXCR4 [7]
  Kd: 22500 nM

B12: AM3-114-Im7-FH-SA21 dual specificity i-body (designed binder)
chain: MALQVDIVPSQGEISVGESKFFLCQVAGSLSGIRISWFSPNGEKLTPNQQRISVVWNDDSSSTLTIYNANIDDAGIYKCVVWRTGGYRHRYLVLGEATVNVKIFQGGGGSELKNSISDYTEAEFVQLLKEIEKENVAATDDVLDVLLEHFVKITEHPDGTDLIYYPSDNRDDSPEGIVKEIKEWRAANGKPGFKQGGGGGSDYKDDDDKGSGHHHHHHHHGGGGSRLIEDICLPRWGCLWEDD
Human serum albumin [12]
  Kd: 518 nM
Human CXCR4 [13]
  Kd: 9.2 nM
  koff: 0.002 s⁻¹
  kon: 210000 M⁻¹ s⁻¹
Human CXCR4 [14]
  Kd: 9 nM
Human CXCR4 [8]
  Kd: 5 to 10 nM
Human serum albumin [15]
  Kd: ~500 nM

B13: AM3-114-6H (designed binder)
chain: EAEALQVDIVPYQGEISVGESKFFLCQVAGSLSGIRISWFSPNGEKLTPNQQRISVVWNDDSSSTLTIYNANIDDAGIYKCVVWRTGGYRHRYLVLGEATVNVKIFQ
notes: Construct with N-terminal EAEA and 6H tag, detected with anti-His-PE; not shown: 6H tag (six histidines by the label)
Human CXCR4 [16]
  binding result: binds

B14: AM4-272-6H (designed binder)
chain: B13 chain with Y12S, L32Y, G34D, I35Y, W84Y, T86I
notes: as for B13
Human CXCR4 [17]
  binding result: binds

B15: ADCX-272 (designed binder)
chain: LQVDIVPSQGEISVGESKFFLCQVAGHLEVRSISWFSPNGEKLTPNQQRISVVWNDDSSSTLTIYNANIDDAGIYKCVVEQRGRSQSYFSEATVNVKIFQ
notes: as for B11
Human CXCR4 [18]
  Kd: 1620 nM
Human CXCR4 [6]
  Kd: 1600 nM
CCR5 (on lipoparticles)
  binding result: no binding

B16: ADCX-668 (designed binder)
chain: LQVDIVPSQGEISVGESKFFLCQVAGTIWYEQISWFTPNGEKLTPNQQRISVVWNDDSSSTLTIYNANIDDAGIYKCVVWTRPVTSSMHEATVNVKIFQ
notes: as for B11
Human CXCR4 [19]
  Kd: 42300 nM
Human CXCR4 [6]
  Kd: 42000 nM

B17: ADCX-6 (designed binder)
chain: LQVDIVPSQGEISVGESKFFLCQVAGLTSLEGISWFSPNGEKLTPNQQRISVVWNDDSSSTLTIYNANIDDAGIYKCVVEDHPQYSKMEEATVNVKIFQ
notes: i-body (human NCAM1 domain 1 scaffold); also called ACDX-6
Human CXCR4 [20]
  binding result: binds

B18: ADCX-54 (designed binder)
chain: LQVDIVPSQGEISVGESKFFLCQVAGRTIIVEISWFSPNGEKLTPNQQRISVVWNDDSSSTLTIYNANIDDAGIYKCVVVLSIRGKWELEATVNVKIFQ
notes: as for B11
Human CXCR4 [20]
  binding result: binds
